Series [1] deals with 3xFLAG-tagged WT human TRPA1 (human, UniProt O75762 1-1119). As to the kind of experiment: co-IP + SEC.
The series “SEC” deals with the molecule itself. The series is described as follows: SEC. On the technique in general: In gel filtration, larger molecules generally elute earlier.
The next series concerns the target FLAG-MBP-WT human TRPA1 (human, UniProt O75762 1-1119). As to the kind of experiment: pull-down + co-IP.

B1: GFP-tagged WT human TRPA1 (natural protein, UniProt O75762 1-1119, looked up)
chain: MKRSLRKMWRPGEKKEPQGVVYEDVPDDTEDFKESLKVVFEGSAYGLQNFNKQKKLKRCDDMDTFFLHYAAAEGQIELMEKITRDSSLEVLHEMDDYGNTPLHCAVEKNQIESVKFLLSRGANPNLRNFNMMAPLHIAVQGMNNEVMKVLLEHRTIDVNLEGENGNTAVIIACTTNNSEALQILLKKGAKPCKSNKWGCFPIHQAAFSGSKECMEIILRFGEEHGYSRQLHINFMNNGKATPLHLAVQNGDLEMIKMCLDNGAQIDPVEKGRCTAIHFAATQGATEIVKLMISSYSGSVDIVNTTDGCHETMLHRASLFDHHELADYLISVGADINKIDSEGRSPLILATASASWNIVNLLLSKGAQVDIKDNFGRNFLHLTVQQPYGLKNLRPEFMQMQQIKELVMDEDNDGCTPLHYACRQGGPGSVNNLLGFNVSIHSKSKDKKSPLHFAASYGRINTCQRLLQDISDTRLLNEGDLHGMTPLHLAAKNGHDKVVQLLLKKGALFLSDHNGWTALHHASMGGYTQTMKVILDTNLKCTDRLDEDGNTALHFAAREGHAKAVALLLSHNADIVLNKQQASFLHLALHNKRKEVVLTIIRSKRWDECLKIFSHNSPGNKCPITEMIEYLPECMKVLLDFCMLHSTEDKSCRDYYIEYNFKYLQCPLEFTKKTPTQDVIYEPLTALNAMVQNNRIELLNHPVCKEYLLMKWLAYGFRAHMMNLGSYCLGLIPMTILVVNIKPGMAFNSTGIINETSDHSEILDTTNSYLIKTCMILVFLSSIFGYCKEAGQIFQQKRNYFMDISNVLEWIIYTTGIIFVLPLFVEIPAHLQWQCGAIAVYFYWMNFLLYLQRFENCGIFIVMLEVILKTLLRSTVVFIFLLLAFGLSFYILLNLQDPFSSPLLSIIQTFSMMLGDINYRESFLEPYLRNELAHPVLSFAQLVSFTIFVPIVLMNLLIGLAVGDIAEVQKHASLKRIAMQVELHTSLEKKLPLWFLRKVDQKSTIVYPNKPRSGGMLFHIFCFLFCTGEIRQEIPNADKSLEMEILKQKYRLKDLTFLLEKQHELIKLIIQKMEIISETEDDDSHCSFQDRFKKEQMEQRNSRWNTVLRAVKAKTHHLEP
A word on the stoichiometry N: it is the number of molecules, sites or subunits per partner or assembly. With B1, the “stoichiometry N” value (in series [1]; in “SEC”) was 4 each time.

B2: Strep-MBP-R919* human TRPA1 (domain or fragment, UniProt O75762 1-918, looked up)
chain: MKRSLRKMWRPGEKKEPQGVVYEDVPDDTEDFKESLKVVFEGSAYGLQNFNKQKKLKRCDDMDTFFLHYAAAEGQIELMEKITRDSSLEVLHEMDDYGNTPLHCAVEKNQIESVKFLLSRGANPNLRNFNMMAPLHIAVQGMNNEVMKVLLEHRTIDVNLEGENGNTAVIIACTTNNSEALQILLKKGAKPCKSNKWGCFPIHQAAFSGSKECMEIILRFGEEHGYSRQLHINFMNNGKATPLHLAVQNGDLEMIKMCLDNGAQIDPVEKGRCTAIHFAATQGATEIVKLMISSYSGSVDIVNTTDGCHETMLHRASLFDHHELADYLISVGADINKIDSEGRSPLILATASASWNIVNLLLSKGAQVDIKDNFGRNFLHLTVQQPYGLKNLRPEFMQMQQIKELVMDEDNDGCTPLHYACRQGGPGSVNNLLGFNVSIHSKSKDKKSPLHFAASYGRINTCQRLLQDISDTRLLNEGDLHGMTPLHLAAKNGHDKVVQLLLKKGALFLSDHNGWTALHHASMGGYTQTMKVILDTNLKCTDRLDEDGNTALHFAAREGHAKAVALLLSHNADIVLNKQQASFLHLALHNKRKEVVLTIIRSKRWDECLKIFSHNSPGNKCPITEMIEYLPECMKVLLDFCMLHSTEDKSCRDYYIEYNFKYLQCPLEFTKKTPTQDVIYEPLTALNAMVQNNRIELLNHPVCKEYLLMKWLAYGFRAHMMNLGSYCLGLIPMTILVVNIKPGMAFNSTGIINETSDHSEILDTTNSYLIKTCMILVFLSSIFGYCKEAGQIFQQKRNYFMDISNVLEWIIYTTGIIFVLPLFVEIPAHLQWQCGAIAVYFYWMNFLLYLQRFENCGIFIVMLEVILKTLLRSTVVFIFLLLAFGLSFYILLNLQDPFSSPLLSIIQTFSMMLGDINY
Take B2: the “stoichiometry N” value in the series with FLAG-MBP-WT human TRPA1 was 1.3 R919* subunits per WT subunit.

For the origin of these results see article doi:10.1101/2022.01.05.475133 (bioRxiv, 2022).
